Here are results for six molecules from article PMC11612273 (2024).

One experiment deals with T1, GST-PSKR1JK (tomato (Solanum lycopersicum), UniProt A0A3Q7E8N4 1-1013, labeled with RED-NHS).
T1 chain: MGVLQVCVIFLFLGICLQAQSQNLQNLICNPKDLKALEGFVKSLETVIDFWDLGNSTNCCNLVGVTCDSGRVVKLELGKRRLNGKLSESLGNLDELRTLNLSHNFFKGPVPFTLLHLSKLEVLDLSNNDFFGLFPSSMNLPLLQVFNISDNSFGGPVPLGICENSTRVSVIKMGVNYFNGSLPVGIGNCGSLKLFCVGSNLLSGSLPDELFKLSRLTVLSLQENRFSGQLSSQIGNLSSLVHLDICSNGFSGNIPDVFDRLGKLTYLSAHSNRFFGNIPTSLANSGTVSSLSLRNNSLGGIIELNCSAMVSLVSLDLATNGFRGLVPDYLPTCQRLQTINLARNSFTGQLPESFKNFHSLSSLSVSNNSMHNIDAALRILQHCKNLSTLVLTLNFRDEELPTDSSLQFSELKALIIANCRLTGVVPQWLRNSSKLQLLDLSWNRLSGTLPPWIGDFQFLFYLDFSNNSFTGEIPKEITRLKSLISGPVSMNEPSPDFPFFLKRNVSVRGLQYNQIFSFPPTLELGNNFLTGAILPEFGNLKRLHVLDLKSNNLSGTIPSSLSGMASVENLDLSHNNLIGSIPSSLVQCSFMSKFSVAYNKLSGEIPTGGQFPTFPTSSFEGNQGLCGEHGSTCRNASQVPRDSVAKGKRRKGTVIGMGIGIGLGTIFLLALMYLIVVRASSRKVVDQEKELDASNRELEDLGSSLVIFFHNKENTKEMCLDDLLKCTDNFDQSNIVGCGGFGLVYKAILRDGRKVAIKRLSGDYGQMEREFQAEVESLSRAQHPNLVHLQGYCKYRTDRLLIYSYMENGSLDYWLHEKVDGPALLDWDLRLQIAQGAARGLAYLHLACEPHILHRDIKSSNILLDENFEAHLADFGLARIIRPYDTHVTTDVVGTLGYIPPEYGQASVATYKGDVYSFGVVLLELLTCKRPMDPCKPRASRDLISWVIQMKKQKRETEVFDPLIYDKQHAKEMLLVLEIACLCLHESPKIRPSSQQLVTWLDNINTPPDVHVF
Description: MST.

The target of another experiment is T2, GST-BRAKJK (tomato (Solanum lycopersicum), labeled with RED-NHS).
T2 chain: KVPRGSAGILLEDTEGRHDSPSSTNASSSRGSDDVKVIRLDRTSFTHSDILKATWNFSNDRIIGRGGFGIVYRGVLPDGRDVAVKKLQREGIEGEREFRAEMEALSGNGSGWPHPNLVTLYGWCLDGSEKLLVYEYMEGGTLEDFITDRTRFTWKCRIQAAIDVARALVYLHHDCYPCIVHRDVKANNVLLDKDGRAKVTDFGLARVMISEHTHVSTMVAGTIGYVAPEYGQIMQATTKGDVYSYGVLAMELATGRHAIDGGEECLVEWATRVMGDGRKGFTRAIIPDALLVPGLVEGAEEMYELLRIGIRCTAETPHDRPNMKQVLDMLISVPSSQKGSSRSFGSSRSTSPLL
In words: MST.

B1: BRAKJK^Y1048F (phospho-dead) (domain or fragment)
chain: KVPRGSAGILLEDTEGRHDSPSSTNASSSRGSDDVKVIRLDRTSFTHSDILKATWNFSNDRIIGRGGFGIVYRGVLPDGRDVAVKKLQREGIEGEREFRAEMEALSGNGSGWPHPNLVTLYGWCLDGSEKLLVYEYMEGGTLEDFITDRTRFTWKCRIQAAIDVARALVYLHHDCYPCIVHRDVKANNVLLDKDGRAKVTDFGLARVMISEHTHVSTMVAGTIGYVAPEYGQIMQATTKGDVYSYGVLAMELATGRHAIDGGEECLVEWATRVMGDGRKGFTRAIIPDALLVPGLVEGAEEMFELLRIGIRCTAETPHDRPNMKQVLDMLISVPSSQKGSSRSFGSSRSTSPLL
Regarding B1, the Kd (usually a measure of binding affinity in units of concentration) with GST-PSKR1JK amounted to 6900 nM.

B2: BRAKJK^T1027A (phospho-dead; printed BRAKJK^T1024A in the results) (domain or fragment)
chain: KVPRGSAGILLEDTEGRHDSPSSTNASSSRGSDDVKVIRLDRTSFTHSDILKATWNFSNDRIIGRGGFGIVYRGVLPDGRDVAVKKLQREGIEGEREFRAEMEALSGNGSGWPHPNLVTLYGWCLDGSEKLLVYEYMEGGTLEDFITDRTRFTWKCRIQAAIDVARALVYLHHDCYPCIVHRDVKANNVLLDKDGRAKVTDFGLARVMISEHTHVSTMVAGTIGYVAPEYGQIMQATTKGDVYSYGVLAMELATGRHAIDGGEECLVEWATRVMGDGRKGFARAIIPDALLVPGLVEGAEEMYELLRIGIRCTAETPHDRPNMKQVLDMLISVPSSQKGSSRSFGSSRSTSPLL
As to B2, binding with GST-PSKR1JK was characterised by a dissociation constant (Kd) of 2430 nM. Against the preceding molecule, the Kd is about 2.8-fold lower.

B3: PSKR1JK^Y843F (phospho-mutated) (domain or fragment)
chain: VRASSRKVVDQEKELDASNRELEDLGSSLVIFFHNKENTKEMCLDDLLKCTDNFDQSNIVGCGGFGLVYKAILRDGRKVAIKRLSGDYGQMEREFQAEVESLSRAQHPNLVHLQGYCKYRTDRLLIYSYMENGSLDYWLHEKVDGPALLDWDLRLQIAQGAARGLAFLHLACEPHILHRDIKSSNILLDENFEAHLADFGLARIIRPYDTHVTTDVVGTLGYIPPEYGQASVATYKGDVYSFGVVLLELLTCKRPMDPCKPRASRDLISWVIQMKKQKRETEVFDPLIYDKQHAKEMLLVLEIACLCLHESPKIRPSSQQLVTWLDNINTPPDVHVF
In the case of B3, the Kd with GST-BRAKJK is 1800 nM. This lies in the single-digit micromolar range.

B4: PSKR1JK^T890A (phospho-mutated) (domain or fragment)
chain: VRASSRKVVDQEKELDASNRELEDLGSSLVIFFHNKENTKEMCLDDLLKCTDNFDQSNIVGCGGFGLVYKAILRDGRKVAIKRLSGDYGQMEREFQAEVESLSRAQHPNLVHLQGYCKYRTDRLLIYSYMENGSLDYWLHEKVDGPALLDWDLRLQIAQGAARGLAYLHLACEPHILHRDIKSSNILLDENFEAHLADFGLARIIRPYDTHVTADVVGTLGYIPPEYGQASVATYKGDVYSFGVVLLELLTCKRPMDPCKPRASRDLISWVIQMKKQKRETEVFDPLIYDKQHAKEMLLVLEIACLCLHESPKIRPSSQQLVTWLDNINTPPDVHVF
As for B4, in the experiment with GST-BRAKJK, the Kd stood at 2270 nM.

B5: PSKR1JK, wild type (ligand of the MST) (domain or fragment)
chain: VRASSRKVVDQEKELDASNRELEDLGSSLVIFFHNKENTKEMCLDDLLKCTDNFDQSNIVGCGGFGLVYKAILRDGRKVAIKRLSGDYGQMEREFQAEVESLSRAQHPNLVHLQGYCKYRTDRLLIYSYMENGSLDYWLHEKVDGPALLDWDLRLQIAQGAARGLAYLHLACEPHILHRDIKSSNILLDENFEAHLADFGLARIIRPYDTHVTTDVVGTLGYIPPEYGQASVATYKGDVYSFGVVLLELLTCKRPMDPCKPRASRDLISWVIQMKKQKRETEVFDPLIYDKQHAKEMLLVLEIACLCLHESPKIRPSSQQLVTWLDNINTPPDVHVF
The molecule B5 yielded a Kd with GST-BRAKJK of 171 nM.

B6: BRAKJK, wild type (ligand of the MST) (domain or fragment)
chain: MPGRLVCGDSIETDKQLLLNLKSFLKEQNPVDKGFKYNHWNPTDLSPCRWPGISCTTSINRVTGIDLSESNLAGKLFNNFSAMTELNSLDLSKNTFSESIPSDLGWCRNLKFLNLSHNIIVGDLNLTGLNKLEVLDLTMNRIHGLTIPEICDNLAVANISNNNFTSESGFEFSHCKKLKYLDLSYNYLTGNLSFGLDMLNMFSASHNNLSGSLPSWIFTQNCSLQGLDLSENRFFGELPTSIANCKRLVELNLWGNSFSGSIPRGIGSVHSLKELCLGSNNFSSDVPDTLSGLNKLVFLDLSRNNFGGEIQEIFGQLTQVRFLVLHGNSYTGGIVSSGIPNLVNLSRLDLSDNHFSGPLPVEISEMKGLEFLILAHNQFSGNIPSEYGDLTALQAVDLSSNRINGSIPPSFGKLRSLLWLMLANNSLSGEIPSELGNCSSLLWLNLANNQLTGPIPPQLASIGADPMLTFLLNRGKEKLTASPGDCFAMRRWIPADYPPFSFIYPLLTGKSCRILGDKLFMGDGLMPLCEPGSNVRKNQVPGYIQLSDNKLSGEIPPEISNMKKMSMMHLGANEFSGRLPSEIGQLHLVVLNVSQNKFSGEIPKQIGHLKCLLNLDLSFNNFSGPFPVSFSNLHDLSKFNISYNQYIYGAVPETGQLLTFDKSSFLGNPLLRLPSFMHNSKNNTERNTNDTHKKPKKVGALLVIVVLVLAFLVCGVMSLVVCLLIKVPRGSAGILLEDTEGRHDSPSSTNASSSRGSDDVKVIRLDRTSFTHSDILKATWNFSNDRIIGRGGFGIVYRGVLPDGRDVAVKKLQREGIEGEREFRAEMEALSGNGSGWPHPNLVTLYGWCLDGSEKLLVYEYMEGGTLEDFITDRTRFTWKCRIQAAIDVARALVYLHHDCYPCIVHRDVKANNVLLDKDGRAKVTDFGLARVMISEHTHVSTMVAGTIGYVAPEYGQIMQATTKGDVYSYGVLAMELATGRHAIDGGEECLVEWATRVMGDGRKGFTRAIIPDALLVPGLVEGAEEMYELLRIGIRCTAETPHDRPNMKQVLDMLISVPSSQKGSSRSFGSSRSTSPLL
With B6, the affinity with GST-PSKR1JK, expressed as Kd, was 196 nM.
